This note sets out measurements from publication PMC7267773, “CCDC61/VFL3 Is a Paralog of SAS6 and Promotes Ciliary Functions” (Structure(London, England:1993), 2020).

Series [1] concerns the molecule itself. As to the kind of experiment: crystal structure; zCCDC61^1-170, 4.62 mg/ml, 100 mM Citric acid pH 5.0, 1 M LiCl, sitting drop, 20°C.
Series [2] deals with the molecule itself. Kind of series: AUC; sedimentation equilibrium, 12, 4 and 1.3 mg/ml, 11,600, 19,700 and 34,000 rpm, 4°C; dimer to monomers.
Series [3] concerns the molecule itself. Kind of series: AUC; velocity sedimentation, approximately 480 μM (7.9 mg/ml), 20 mM Tris-HCl pH 8.0, 150 mM NaCl, 2 mM DTT, 50,000 rpm, 4°C; c(s) distribution.
Series [4] deals with the molecule itself. As to the kind of experiment: SEC-MALS; Superdex S200 10/300, 10mM Tris-HCl pH 7.4, 150mM NaCl, room temperature; loaded at 1, 6.5 and 65 mg/ml (wild type) and 1, 6.8 and 73 mg/ml (F129E/D130A).

Substitutions are numbered along the chain they refer to. In names and notes the source's numbering stands.

B1: zebrafish CCDC61 (residues 1–170; zCCDC61^1-170), lipoyl-domain tag removed (domain or fragment, zebrafish (Danio rerio))
chain: GGSMEVGTVVQEEMKFRGSEFAVKVEMAERLLIVEISDVVTADQWRGEFGPAYIEDLTRKTGNFKQFPVFCSMLESAVHKSSDSVTLDLLTYSDLELLRNRKAGVVGRPRAQPQSPALSAKRYLILIYTVEFDRIHYPLPLPYLGKPDPAELQKEIRALRSELKTLGLRGDHK
notes: extra residues Gly-Gly-Ser left at the N-terminus after the tag was cleaved with tev protease; zebrafish (Danio rerio) CCDC61, residues 1-170, head and part of the coiled-coil domain; Homo-tetramer in the crystal; source: E. coli C41, purified (Ni-NTA, tev cleavage, HisTrap FF, HiTrap Q HP flow through, PD-10); not shown: His tag, N-terminal, cleaved; lipoyl domain (Bacillus stearothermophilus …)
In the case of B1, the “stoichiometry N” value in series [1] is 4.

B2: N-terminal head domain of human CCDC61 (hCCDC61^1-143) (domain or fragment)
chain: GSMDQPAGLQVDYVFRGVEHAVRVMVSGQVLELEVEDRMTADQWRGEFDAGFIEDLTHKTGNFKQFNIFCHMLESALTQSSESVTLDLLTYTDLESLRNRKMGGRPGSLAPRSAQLNSKRYLILIYSVEFDRIHYPLPLPYQGKP
notes: extra residues Gly-Ser left at the N-terminus after the His-GST tag was cleaved with tev protease; gene codon optimized for E. coli and synthesized; The crystal (PDB 6HXT) was of the seleno-methionine-substituted protein; also called hCCDC61 head domain; source: E. coli BL21(DE3), purified (GSTrap, tev cleavage, HisTrap flow through, HiTrap Q, PD-10); not shown: His tag, N-terminal, cleaved; GST, …
On to B2, for which the dissociation constant (Kd) in series [2] is 170 ± 18 µM. Also, in series [3], the “stoichiometry N” value was 2.

B3: His6-lipoyl-zCCDC61^1-170 (domain or fragment, zebrafish (Danio rerio), UniProt Q08CF3 1-170, looked up)
chain: MEVGTVVQEEMKFRGSEFAVKVEMAERLLIVEISDVVTADQWRGEFGPAYIEDLTRKTGNFKQFPVFCSMLESAVHKSSDSVTLDLLTYSDLELLRNRKAGVVGRPRAQPQSPALSAKRYLILIYTVEFDRIHYPLPLPYLGKPDPAELQKEIRALRSELKTLGLRGDHK
notes: zebrafish (Danio rerio) CCDC61, residues 1-170; The His6-lipoyl domain tag was retained for SEC-MALS to stabilize the protein at high concentrations; also called Lipo-zCCDC61^1-170; wild-type; source: E. coli C41 in 2xTY, purified (Ni-NTA, SEC, HiTrap Q-FF); not shown: His6, N-terminal, kept; lipoyl domain (Bacillus stearothermophilus dihydrolipoamide acetyltransferase), N-terminal, kept
Turning to B3, the binding result in series [4] was “binds”.

B4: His6-lipoyl-zCCDC61^(1-170; F129E/D130A) (domain or fragment, zebrafish (Danio rerio), UniProt Q08CF3 1-170, looked up)
chain: B3 chain with F129E, D130A
notes: zebrafish (Danio rerio) CCDC61, residues 1-170, with F129E and D130A; also called Lipo-zCCDC61^(1-170); head-to-head dimerization-deficient mutant; source: E. coli C41 in 2xTY, purified (Ni-NTA, SEC, HiTrap Q-FF); not shown: His6, N-terminal, kept; lipoyl domain (Bacillus stearothermophilus dihydrolipoamide acetyltransferase), N-terminal, kept
B4: the binding result in series [4] is reported as “binds”.
